Data published in patent publication US7279149B2, “Amino acid composition with increased blood brain barrier permeability” (Mayo Foundation for Medical Education and Research, priority 2003, dated 2007).

Experiments:
[1] = target: T1, amyloid plaques in APP, PS1 mice (Homo sapiens, UniProt P05067); details: 200 μg, PS1 mice at 27 weeks of age (Wengenack 2000); cited from earlier work
T1 construct: host or cells: APP, PS1 mouse brain (earlier studies: Wengenack 2000; Poduslo 2002)

[2] = tested on: amyloid plaques in human AD temporal lobe cortex sections; experiment: Labeling of amyloid plaques in human AD brain sections in vitro (emulsion autoradiography); assay type: binding
Procedure: (§1) f. Labeling of Amyloid Plaques in Human AD and APP, PS1 Mouse Brain Sections In Vitro with Diamine- and Gadolinium-Substituted Aβ30 Peptides. HPLC-purified ^125I-Aβ40, ^125I-Aβ30, ^125I-[N-4ab/Q-4ab]Aβ30, ^125I-Gd[N-4ab/Q-4ab]Aβ30, or buffer was incubated with sections of unfixed AD temporal lobe cortex using the same procedure we used previously (Wengenack, T. M., et al., Neuroscience 101:939–944, 2000). Briefly, the 15 μm-sections were incubated for 3 hours at RT with 100 pM radioiodinated peptide or alone in 250 μl of TBS (50 mM Tris HCl, 138 mM sodium chloride, pH 7.0) containing 0.1% BSA, 0.6 mg/ml magnesium chloride, 0.04 mg/ml bacitracin, 0.002 mg/ml chymostatin, and 0.004 mg/ml leupeptin. The sections then underwent immunohistochemistry (IH) for amyloid using an anti-Aβ monoclonal mouse antibody (4G8, 1:1000, Signet Laboratories, Dedham, Mass.). Next, the sections were dipped in an autoradiographic emulsion (Type NTB-3, Kodak, Rochester, N.Y.) for direct comparison of ^125I-labeled amyloid deposits to anti-Aβ IH. The slides were dipped in emulsion, exposed for various durations, and developed according to the instructions. The sections were dehydrated with successive changes of ethanol and xylene and then coverslipped.

[3] = target: T2, amyloid plaques in APP, PS1 mouse brain sections (Homo sapiens, UniProt P05067); experiment: Labeling of amyloid plaques in APP, PS1 transgenic mouse brain sections in vitro; assay type: binding
T2 construct: from tissue; host or cells: brain of APP (Tg2576) x PS1 (M146L6.2) double transgenic mice
T2 sequence (P05067 672-711 limits assumed): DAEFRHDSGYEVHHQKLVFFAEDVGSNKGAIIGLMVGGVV
Procedure: as §1, with “coverslipped. […]” for “coverslipped.”

[4] = target: T3, amyloid plaques in APP, PS1 transgenic mouse brain (Homo sapiens, UniProt P05067); experiment: Labeling of amyloid plaques in APP, PS1 transgenic mouse brain in vivo after IV injection; details: 21-month old APP, PS1 mice, 750 μg IV, four hours
T3 construct: from tissue; host or cells: brain of APP (Tg2576) x PS1 (M146L6.2) double transgenic mice
T3 sequence (P05067 672-711 limits assumed): as above
Procedure: a. Subjects. These evaluations were performed using transgenic mice that express two mutant human proteins associated with familial AD and have been described in detail elsewhere (Holcomb, L., et al., Nature Med. 4:97–100, 1998). Hemizygous transgenic mice (Tg2576) expressing mutant human amyloid precursor protein (APP695) (Hsiao, K., et al., Science 274:99–102, 1996) were mated with a second strain of hemizygous transgenic mice (M146L6.2) expressing mutant human presenilin 1 (PS1) (Holcomb, L., et al., supra, 1998). The animals were genotyped for the expression of both transgenes by a PCR method using a sample of mouse-tail DNA. […]
g. […] Silver grains from sections exposed for 6 days and 2 weeks were quantitated using unbiased, stereological techniques. Sections exposed for 4 or 8 weeks were somewhat overexposed such that over many of the plaques the exposed silver grains had become confluent could not be counted accurately. Silver grains were counted over plaques in three sections from each animal in the retrosplenial cortex and CA1 region of the hippocampus using a 10-μm×10-μm dissector at 400×. The mean background level of exposed silver grains was also determined for each section. The results were expressed as the mean number of silver grains/100 μm^2 minus the background. […]

[5] = target: T4, amyloid plaques in APP, PS1 mouse brain (Homo sapiens, UniProt P05067); details: PS1 mouse brains ex vivo following IV injection (Poduslo 2002); cited from earlier work
T4 construct: host or cells: APP, PS1 mouse brain (earlier studies: Wengenack 2000; Poduslo 2002)
T4 sequence (P05067 672-711 limits assumed): as above

T1 sequence (P05067 672-711 limits assumed): as above

In the case of “Aβ40: human amyloid-β peptide Aβ40, radioiodinated; served as a positive control”, the “labeling of plaques in vivo, previous study” value [1] is listed as “did not label plaques”, the “labeling of neuritic plaques” value ([2]; 100 pM radioiodinated peptide, 3 hours at RT, unfixed human AD temporal lobe cortex sections) is listed as “labeled most dense-core, neuritic type plaques” and the “labeling of small amyloid deposits” value ([2]; 100 pM radioiodinated peptide, human AD sections) is listed as “labeled only a few”. The “exposure time required to detect exposed silver grains” value ([2]; human AD sections, equal amounts of peptide (100 pM)) was 7 days, the “labeling of neuritic plaques” value ([3]; 100 pM, unfixed APP) was “labeled most of the neuritic plaques” and the “duration of exposure to achieve a detectable amount of silver grains” value ([3]; APP, equal amounts of peptide) was “one”. The “labeling of plaques in vivo” value [4] was “also labeled plaques in vivo”.

For “Gd-Aβ40: Gd-DTPA substituted Aβ40 of a previous study”, the “contrast enhancement of plaques during MRI” value [5] is listed as “not to provide contrast enhancement of plaques”.

For “(PUT-)Gd-Aβ40: polyamine (putrescine)-modified Gd-Aβ40 of a previous study”, the “contrast enhancement of plaques during MRI” value [5] is listed as “provide contrast enhancement of plaques”.
